Laboratory results published in US20050266509.
Numbering of substitutions follows the chain as printed.

B1: PTPMEG, full length clone (amino-terminal myc-tag, c-terminal HA tag) (protein)
chain: MTSRFRLPAGRTYNVRASELARDRQHTEVVCNILLLDNTVQAFKVNKHDQGQVLLDVVFKHLDLTEQDYFGLQLADDSTDNPRWLDPNKPIRKQLKRGSPYSLNFRVKFFVSDPNKLQEEYTRYQYFLQIKQDILTGRLPCPSNTAALLASFAVQSELGDYDQSENLSGYLSDYSFIPNQPQDFEKEIAKLHQQHIGLSPAEAEFNYLNTARTLELYGVEFHYARDQSNNEIMIGVMSGGILIYKNRVRMNTFPWLKIVKISFKCKQFFIQLRKELHESRETLLGFNMVNYRACKNLWKACVEHHTFFRLDRPLPPQKNFFAHYFTLGSKFRYCGRTEVQSVQYGKEKANKDRVFARSPSKPLARKLMDWEVVSRNSISDDRLETQSLPSRSPPGTPNHRNSTFTQEGTRLRPSSVGHLVDHMVHTSPSEVFVNQRSPSSTQANSIVLESSPSQETPGDGKPPALPPKQSKKNSWNQIHYSHSQQDLESHINETFDIPSSPEKPTPNGGIPHDNLVLIRMKPDENGRFGFNVKGGYDQKMPVIVSRVAPGTPADLCVPRLNEGDQVVLINGRDIAEHTHDQVVLFIKASCERHSGELMLLVRPNAVYDVVEEKLENEPDFQYIPEKAPLDSVHQDDHSLRESMIQLAEGLITGTVLTQFDQLYRKKPGMTMSCAKLPQNISKNRYRDISPYDATRVILKGNEDYINANYINMEIPSSSIINQYIACQGPLPHTCTDFWQMTWEQGSSMVVMLTTQVERGRVKCHQYWPEPTGSSSYGCYQVTCHSEEGNTAYIFRKMTLFNQEKNESRPLTQIQYIAWPDHGVPDDSSDFLDFVCHVRNKRAGKEEPVVVHCSAGIGRTGVLITMETAMCLIECNQPVYPLDIVRTMRDQRAMMIQTPSQYRFVCEAILKVYEEGFVKPLTTSTNK
B2: PTPMEG-CS (inactive PTPase), full length clone (amino-terminal myc-tag, c-terminal HA tag) (protein)
chain: B1 chain with C852S

Columns and labels:
[1] = biological target: NR2B, full length clone (NMDA receptor subunit), Q13224
NR2B, full length clone (NMDA receptor subunit), Q13224, sequence (Q13224 27-1484): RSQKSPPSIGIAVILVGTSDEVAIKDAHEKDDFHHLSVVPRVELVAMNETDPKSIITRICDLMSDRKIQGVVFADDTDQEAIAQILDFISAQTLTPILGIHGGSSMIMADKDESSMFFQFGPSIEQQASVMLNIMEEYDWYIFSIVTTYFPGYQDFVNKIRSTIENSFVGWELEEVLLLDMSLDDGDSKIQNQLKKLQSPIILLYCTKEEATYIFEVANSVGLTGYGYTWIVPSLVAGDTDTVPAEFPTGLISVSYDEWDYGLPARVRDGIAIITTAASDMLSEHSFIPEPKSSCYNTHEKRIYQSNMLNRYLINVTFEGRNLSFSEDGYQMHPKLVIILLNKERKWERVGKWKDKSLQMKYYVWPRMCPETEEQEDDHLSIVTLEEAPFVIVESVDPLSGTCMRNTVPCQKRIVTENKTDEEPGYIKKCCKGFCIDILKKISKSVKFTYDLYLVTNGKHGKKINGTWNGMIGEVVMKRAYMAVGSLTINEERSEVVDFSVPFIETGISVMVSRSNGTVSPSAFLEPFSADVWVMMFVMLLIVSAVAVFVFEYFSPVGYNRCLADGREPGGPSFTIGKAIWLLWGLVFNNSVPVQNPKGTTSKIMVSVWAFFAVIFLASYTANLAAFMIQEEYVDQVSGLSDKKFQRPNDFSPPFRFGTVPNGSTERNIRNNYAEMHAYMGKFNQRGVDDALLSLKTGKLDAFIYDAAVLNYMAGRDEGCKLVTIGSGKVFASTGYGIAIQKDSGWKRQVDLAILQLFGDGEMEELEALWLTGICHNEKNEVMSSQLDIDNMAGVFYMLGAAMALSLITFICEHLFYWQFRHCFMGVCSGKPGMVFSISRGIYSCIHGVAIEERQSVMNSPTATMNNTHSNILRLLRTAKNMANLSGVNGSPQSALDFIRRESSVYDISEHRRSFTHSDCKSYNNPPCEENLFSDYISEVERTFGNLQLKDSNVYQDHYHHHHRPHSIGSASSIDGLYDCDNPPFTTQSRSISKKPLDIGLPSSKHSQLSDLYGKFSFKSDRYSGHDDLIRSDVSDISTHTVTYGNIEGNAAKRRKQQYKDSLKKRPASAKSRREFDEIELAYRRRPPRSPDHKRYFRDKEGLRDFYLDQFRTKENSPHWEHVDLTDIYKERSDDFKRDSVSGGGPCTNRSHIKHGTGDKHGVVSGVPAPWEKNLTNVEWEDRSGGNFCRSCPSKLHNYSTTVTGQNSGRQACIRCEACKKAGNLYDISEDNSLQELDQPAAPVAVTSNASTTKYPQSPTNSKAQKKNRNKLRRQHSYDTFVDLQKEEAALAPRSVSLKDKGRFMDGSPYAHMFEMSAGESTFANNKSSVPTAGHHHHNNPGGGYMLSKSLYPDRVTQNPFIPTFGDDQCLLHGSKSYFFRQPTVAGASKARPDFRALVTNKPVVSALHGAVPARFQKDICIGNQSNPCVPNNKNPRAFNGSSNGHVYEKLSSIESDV

[2] = biological target: constitutive active Src kinase

Row | Protein | NR2B tyrosine phosphorylation, western blot with an NR2B phosphospecific antibody [1] | Src phosphorylation at position 418, western blot with anti PY418 antibody [2] | phosphorylation at Y418, western blot with a Src/fyn specific phosphoantibody [2] | NR2B tyrosine phosphorylation, western blot [1] | Src phosphorylation at position 418, western blot [2]
1 | B1 | In presence of the active wildtype PTPMEG phosphatase, both the NR2B subunit as well as Src kinase were dephosphorylated | In presence of the active wildtype PTPMEG phosphatase, both the NR2B subunit as well as Src kinase were dephosphorylated | In presence of PTPMEG (identified with a c-myc antibody from Upstate) there is a dephosphorylation of Src and fyn at position Y418 |  | 
2 | B2 |  |  |  | Dephosphorylation of NR2B and Src kinase was reversed by addition of dephostatin, and unaffected in presence of the dominant negative form of PTPMEG (CS) | Dephosphorylation of NR2B and Src kinase was reversed by addition of dephostatin, and unaffected in presence of the dominant negative form of PTPMEG (CS)
